Test results published in patent publication US20260028403A1 (Zymeworks, published 2026).
Blank lines part the entries; values can stand above or below the binder they belong to.

Assays:
[1] = biological target: T1, CD28 on primary human T cells (human, UniProt P10747 19-220); assay: cell-based or functional assay
[2] = biological target: T1, CD28 on primary human T cells; assay: cell-based or functional assay; remark: listed apart in the source
Human CLDN18.2 [3] = biological target: T2, Human CLDN18.2 (human); assay: flow cytometry, SNU 601 cells
T2 construct: on transfected HEK293-6E cells or native on SNU 601 cells

[4] = biological target: T3, Recombinant human/cynomolgus/rhesus macaque CD28 mouse IgG2a Fc fusion protein (Acro Biosystems) (human/cynomolgus/rhesus macaque, UniProt P10747 19-152); assay: SPR, in-format anti-CD28 variants, huCD28
T3 construct: bought; also called huCD28

[5] = biological target: T4, Recombinant human CD3 epsilon/delta heterodimer, his tag protein (Acro Biosystems) (human, UniProt P07766 23-126; P04234 22-105); assay: SPR Biacore T200, CD3 e/d-his on CM5, construct injected, 1:1 model;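 also: measured at 25 °C in HEPES-buffered saline with EDTA and Tween 20 at pH 7.4, values are means of three independent runs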
T4 construct: bought

[6] = biological target: T3, Recombinant human/cynomolgus/rhesus …; assay: SPR Biacore T200, CD28-mIgG2a Fc on CM5, construct injected, 1:1 model;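 also: fc fusion captured by amine coupling, run at 25 °C in HEPES buffer pH 7.4, association 140-500 s then dissociation 600-1200 s, values averaged over three independent runs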
[7] = biological target: T1, CD28 on primary human T cells; assay: cell-based or functional assay; remark: listed apart in the source
[8] = biological target: T1, CD28 on primary human T cells; assay: cell-based or functional assay; remark: listed apart in the source
Cynomolgus monkey CLDN18 = biological target: T5, Cynomolgus monkey CLDN18 (cynomolgus monkey); assay: flow cytometry, HEK293-6E + cyno CLDN18, 4PL fit
T5 construct: on transfected HEK293-6E cells; also called Cyno CLDN18; cyno CLDN18.2 ortholog
T5 chain: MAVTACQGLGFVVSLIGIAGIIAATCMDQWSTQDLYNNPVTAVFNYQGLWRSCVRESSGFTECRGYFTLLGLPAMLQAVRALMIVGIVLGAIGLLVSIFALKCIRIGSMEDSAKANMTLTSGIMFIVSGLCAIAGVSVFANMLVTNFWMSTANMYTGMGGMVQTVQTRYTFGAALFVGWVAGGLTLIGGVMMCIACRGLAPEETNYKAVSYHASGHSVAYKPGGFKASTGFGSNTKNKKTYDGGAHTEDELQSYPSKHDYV
Experimental: (§1) The purified rabbit chimeric and humanized constructs were assessed for binding to HEK293-6E cells transfected with human, cynomolgus monkey, or mouse CLDN18.2 orthologs (TABLE 12) by flow cytometry. […] Constructs were also assessed for binding to HEK293-6E cells transfected with human CLDN18.1.

Mouse CLDN18 A2.1 = biological target: T6, Mouse CLDN18 A2.1 (mouse, UniProt P56857 10-264); assay: flow cytometry, HEK293-6E + mouse CLDN18, 4PL fit
T6 construct: on transfected HEK293-6E cells; also called Mouse CLDN18 2.1; mouse CLDN18.2 ortholog
T6 chain: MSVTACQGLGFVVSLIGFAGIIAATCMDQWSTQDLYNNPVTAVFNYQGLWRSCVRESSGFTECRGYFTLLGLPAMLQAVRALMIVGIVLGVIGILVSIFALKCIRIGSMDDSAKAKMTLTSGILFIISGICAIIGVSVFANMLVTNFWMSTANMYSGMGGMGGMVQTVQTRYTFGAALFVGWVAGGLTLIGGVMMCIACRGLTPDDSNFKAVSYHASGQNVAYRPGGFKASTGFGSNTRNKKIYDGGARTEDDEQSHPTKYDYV
Experimental: as §1

Human CLDN18.2 [9] = biological target: T2, Human CLDN18.2; assay: flow cytometry, HEK293-6E + human CLDN18.2, 4PL fit
Experimental: as §1

B1: v37638 (trispecific antibody, human IgG1, kappa, L234A L235A)
heavy 1: not shown
heavy 2: QVQLVESGGGLVQPGGSLRLSCSVSGIDLSSNPMIWVRQAPGKGLQYIGIIDTDGSTYYADWAKGRFTISKDSTTVYLQINSPRAEDTAVYYCARRLHGSSNGYYDDLWGQGTLVTVSSGGGGSGGGGSGGGGSGGGGSDGQMTQSPSSVSASVGDRVTITCQASQSIYSYLSWYQQKPGQRPKLLIYKASTLASGVPSRFSGSGSGTDFTLTISSVQPEDFATYYCQQGYTVTNVDKNTFGGGTKVEIKAAEPKSSDKTHTCPPCPAPEAAGGPSVFLFPPKPKDTLMISRTPEVTCVVVSVSHEDPEVKFNWYVDGVEVHNAKTKPREEQYNSTYRVVSVLTVLHQDWLNGKEYKCKVSNKALPAPIEKTISKAKGQPREPQVYVLPPSRDELTKNQVSLLCLVKGFYPSDIAVEWESNGQPENNYLTWPPVLDSDGSFFLYSKLTVDKSRWQQGNVFSCSVMHEALHNHYTQKSLSLSPG
light: DIQMTQSPSSLSASVGDRVTITCRASESVEYYVTSLMQWYQQKPGKAPKLLIYAASNVDSGVPSRFSGSGSGTDFTLTISSLQPEDIATYYCQQSRKVPFTFGGGTKVEIKRTVAAPSVFIFPPSDEQLKSGTASVVCLLNNFYPREAKVQWKVDNALQSGNSQESVTEQDSKDSTYSLSSTLTLSKADYEKHKVYACEVTHQGLSSPVTKSFNRGEC
notes: wild type huTN228 Fab; Het Fc, FcKO; also called Cldn18.2xCD3xCD28 trispecific
- IC50, T cell-dependent cytotoxicity on SNU 601 [1]: 0.00017 nM
- Maximum Killing (%), SNU 601 [1]: 88.2%
- IL-2 maximum cytokine, T cells alone [2]: 1750 pg/mL
- IL-2 maximum cytokine, T cells with SNU 601 cells [2]: 3710 pg/mL
- TNFa maximum cytokine, T cells alone [2]: 115 pg/mL
- TNFa maximum cytokine, T cells with SNU 601 cells [2]: 670 pg/mL
- Bmax (Human CLDN18.2 [3]): 9140 MFI
- EC50 (Human CLDN18.2 [3]): 47.5 nM
- Fold-change from WT [4]: 1 fold
- Kd [4]: 22.2 nM
- koff [4]: 0.0021 s⁻¹
- kon [4]: 95500 M⁻¹ s⁻¹
- Kd [5]: 74.6 nM
- koff [5]: 0.0123 s⁻¹
- kon [5]: 164000 M⁻¹ s⁻¹
- Kd [6]: 22.2 nM
- koff [6]: 0.0021 s⁻¹
- kon [6]: 95500 M⁻¹ s⁻¹

B2: v37640 (trispecific antibody, human IgG1, kappa, L234A L235A)
heavy 1: QVQLQESGPGLVKPSETLSLTCAVSGFSLTSYGVHWIRQPPGKGLEWLGVIWPGGGTNFNSALMSRLTISEDTSKNQVSLKLSSVTAADTAVYYCARDRAYGNYLYAMDYWGQGTLVTVSSASTKGPSVFPLAPSSKSTSGGTAALGCLVKDYFPEPVTVSWNSGALTSGVHTFPAVLQSSGLYSLSSVVTVPSSSLGTQTYICNVNHKPSNTKVDKKVEPKSCDKTHTCPPCPAPEAAGGPSVFLFPPKPKDTLMISRTPEVTCVVVSVSHEDPEVKFNWYVDGVEVHNAKTKPREEQYNSTYRVVSVLTVLHQDWLNGKEYKCKVSNKALPAPIEKTISKAKGQPREPQVYVYPPSRDELTKNQVSLTCLVKGFYPSDIAVEWESNGQPENNYKTTPPVLDSDGSFALVSKLTVDKSRWQQGNVFSCSVMHEALHNHYTQKSLSLSPGGGGGSGNFMLTQPHSVSESPGKTVTISCKRNTGNIGSNYVNWYQQHEGSSPTTIIYRNDKRPDGVSDRFSGSIDRSSKSASLTISNLKTEDEADYFCQSYSSGFIFGGGTKLTVLGGGGSGGGGSGGGGSGGGGSEVQLVESGGGLVQPGGSLRLSCAASGVTFNYYGMSWIRQAPGKGLEWVASITSSGGRIYYPDSVKGRFTISRENTQKTLYLQMNSLRAEDTAVYYCTLDGRDGWVAYWGQGTLVTVSS
heavy 2: B1 heavy 2
light: B1 light
notes: Het Fc, FcKO; also called Cldn18.2xCD28xCD3 trispecific
- Bmax (Human CLDN18.2 [3]): 9770 MFI
- EC50 (Human CLDN18.2 [3]): 26.4 nM
- Kd [5]: 296 nM
- koff [5]: 0.0155 s⁻¹
- kon [5]: 52200 M⁻¹ s⁻¹
- Kd [6]: 27.3 nM
- koff [6]: 0.00212 s⁻¹
- kon [6]: 77800 M⁻¹ s⁻¹

B5: v35777 (antibody, human IgG1, V domains shown)
VH: QSLEESGGRLVTPGTPLTLTCTVSGIDLSSNPMIWVRQAPGKGLQYIGIIDTDGSTYYASWAKGRFTGSKTSTTVDLKITSPTTEDTATYFCARRLHGSSNGYYDDLWGQGTLVTISS
VL: DGVMTQTPSSVSAAVGGTVTIKCQASQSIYSYLSWYQQKPGQRPKLLIYKASTLASGVPSRFKGSGSGTEFTLTISGVQCDDAATYYCQQGYTVTNVDKNTFGGGTEVVVK
notes: also called parental rabbit chimeric; rabbit-human chimeric IgG1/kappa anti-CLDN18.2
- Bmax (Cynomolgus monkey CLDN18): 1660
- EC50 (Cynomolgus monkey CLDN18): 0.48 nM
- Bmax (Mouse CLDN18 A2.1): 1640
- EC50 (Mouse CLDN18 A2.1): 0.87 nM
- Bmax (Human CLDN18.2 [9]): 2070
- EC50 (Human CLDN18.2 [9]): 1.29 nM

Next, values leading:

- IFNg mean cytokine, T cells alone, 45 nM construct [7]: 559 pg/mL
- IL-2 mean cytokine, T cells alone, 45 nM construct [7]: 1690 pg/mL
- IFNg EC50, T cells + SNU 601 [8]: 0.023 nM
- IFNg maximum cytokine, T cells + SNU 601 [8]: 3990 pg/mL
- IL-2 EC50, T cells + SNU 601 [8]: 0.00916 nM
- IL-2 maximum cytokine, T cells + SNU 601 [8]: 5560 pg/mL
- Fold-change from WT [4]: 3.1 fold
- Kd [4]: 130 nM
- koff [4]: 0.00738 s⁻¹
- kon [4]: 59800 M⁻¹ s⁻¹
B3: v38992 (trispecific antibody, human IgG1, kappa, L234A L235A)
heavy 1: not shown
heavy 2: EVQLVESGGGLVQPGGSLRLSCAASGVTFNYYGMSWIRQAPGKGLEWVASITSSGGRIYYPDSVKGRFTISRENTQKTLYLQMNSLRAEDTAVYYCTLDGRDGWVAYWGQGTLVTVSSGGGGSGGGGSGGGGSGGGGSNFMLTQPHSVSESPGKTVTISCKRNTGNIGSNYVNWYQQHEGSSPTTIIYRNDKRPDGVSDRFSGSIDRSSKSASLTISNLKTEDEADYFCQSYSSGFIFGGGTKLTVLAAEPKSSDKTHTCPPCPAPEAAGGPSVFLFPPKPKDTLMISRTPEVTCVVVSVSHEDPEVKFNWYVDGVEVHNAKTKPREEQYNSTYRVVSVLTVLHQDWLNGKEYKCKVSNKALPAPIEKTISKAKGQPREPQVYVLPPSRDELTKNQVSLLCLVKGFYPSDIAVEWESNGQPENNYLTWPPVLDSDGSFFLYSKLTVDKSRWQQGNVFSCSVMHEALHNHYTQKSLSLSPG
light: B1 light
notes: also called v37642 format, CD28 VH G1064S

- IFNg mean cytokine, T cells alone, 45 nM construct [7]: 475 pg/mL
- IL-2 mean cytokine, T cells alone, 45 nM construct [7]: 1520 pg/mL
- IFNg EC50, T cells + SNU 601 [8]: 0.0793 nM
- IFNg maximum cytokine, T cells + SNU 601 [8]: 4450 pg/mL
- IL-2 EC50, T cells + SNU 601 [8]: 0.0287 nM
- IL-2 maximum cytokine, T cells + SNU 601 [8]: 8410 pg/mL
- Fold-change from WT [4]: 3.4 fold
- Kd [4]: 144 nM
- koff [4]: 0.00817 s⁻¹
- kon [4]: 59000 M⁻¹ s⁻¹
B4: v38993 (trispecific antibody, human IgG1, kappa, L234A L235A)
heavy 1: not shown
heavy 2: B3 heavy 2
light: B1 light
notes: also called v37642 format, CD28 VH L1112aN
